The values below come from PMC9820559, “Investigation of the Fuzzy Complex between RSV Nucleoprotein and Phosphoprotein to Optimize an Inhibition Assay by Fluorescence Polarization” (International Journal of Molecular Sciences, 2022).

As usually defined, the Kd is the concentration at which binding is half-saturated. By IC50 is commonly meant the concentration that inhibits the measured activity by half. The Ki is a dissociation constant, usually derived from enzyme kinetics or from competition with a known ligand.

Ends that are not written are not given here. Peptide text beside a SMILES is read from it. * marks the point of attachment. dicyano BODIPY FL = CC1=CC(C)=[N+]2C1=Cc1ccc(CCC(=O)*)n1[B-]2(C#N)C#N; FITC = O=C1OC2(c3ccc(O)cc3Oc3cc(O)ccc32)c2ccc(NC(=S)*)cc21; X1 = Cc1cc(C)n2c1C=C1C=CC(CCC(=O)*)=[N+]1[B-]2(C#N)C#N

Assay [1] deals with T1, RSV N-RNA complex (Human respiratory syncytial virus A, UniProt P03418).
T1 construct: Full-length N was produced by co-expression with the C-terminal domain of RSV P protein in E. coli BL21(DE3); made in house; host or cells: E. coli BL21(DE3), co-transformed with pET-N and pGEX-P(161–241)
The assay is described as follows: Fluorescence polarization inhibition of N-RNA binding to fluorescent probes. To be noted: probe BCN8E 200 nM. From the text: We next performed inhibition experiments for the F11-(N-RNA) complex by M76 (Figure 4B). FP values decreased with increasing competitor concentration. At saturation, FP nearly reached the value of free F11, showing that the F11 peptide could be nearly completely displaced. Since the same concentration range was used for NNTD and N-RNA, poor solubility of M76 can be ruled out to explain the saturation observed before complete displacement of F11 in the presence NNTD (Figure 3C). This reinforces the hypothesis of a second binding site on NNTD, outside the canonical P-binding site. […]
To probe the potency of M76 as an inhibitor, we carried out competition experiments with the M76 molecule and several BCNn peptides. M76 was able to displace the fluorescent probes from N-RNA, and inhibition curves were obtained (Figure 8E). Since we used different N concentrations to have similar dynamic ranges of FP for the series of fluorescent peptides, we cannot directly compare M76 IC50s. However, Kis may be compared.
(§1) Fluorescence polarization measurements were carried out on a Paradigm Detection Platform (Beckman Coulter, Brea, CA, USA) operating with a microplate reader, a fluorescein detection cartridge (excitation range 485/20 nm, emission range 535/25 nm for both parallel and perpendicular components) and the SpectraMax Pro 6.1 software (Molecular Devices, San Jose, CA, USA). Samples were placed in polystyrene black flat bottom 96-well microplates (Cellstar, Greiner bio-one, Frickenhausen, Germany) with 20 µL final volume in each well. If not stated otherwise, the final concentration of fluorescent ligands was 200 nM. The buffer was either 20 mM MES pH 6.5, salt-free or with 250 mM NaCl, or 20 mM Tris pH 8.0 salt-free or with 100 mM NaCl, supplemented with 0.01% Brij-35. Mixing was done using the corresponding plate reader option. The temperature was set to 20 °C. Data were recorded in top reading mode. Measurements were done in triplicate and after an incubation time of 30 min, if not indicated otherwise. Fluorescence polarization (FP) in mFP units was determined from the parallel (I∥) and perpendicular (I⊥) components of the emitted light according to Equation (4). A grating factor G of 1.2 was determined using 1 nM fluorescein in 1 mM NaOH and assuming a theoretical FP of 27 mFP [48]. Background signal was measured from wells containing only buffer, and the mean value was subtracted from each I∥ and I⊥ component. (4) FP (mP)=1000×(I∥−G∗I⊥)/(I∥+G×I⊥)
To assess inhibition of a complex between a fluorescent probe and N protein by peptides or the M76 molecule, the concentration of N was set to work with an FP range comprised between FPmin and ~80% FPmax. Peptides were added from 1 or 2 mM stock solution in water at neutral pH. M76 was added from 10 or 20 mM stock solutions in ethanol or in DMSO. […] Inhibition data were fitted with Origin 7, and in parallel with the Excel solver module. All data were compatible with an absence of cooperativity. FPmax and FPmin were fitted, and the maximal inhibition %i,max was set to 100%. (11) %i=100×[1−(FP−FPmin)/(FPmax−FPmin)] (12) %i=%i,max×[inhibitor]/[inhibitor]+IC50
Inhibition constants Ki were calculated on the IC50-to-Ki converter for a protein-ligand-inhibitor system (https://bioinfo-abcc.ncifcrf.gov/IC50_Ki_Converter/index.php, accessed on 24 August 2022), assuming a competitive mechanism (Equation (13)). This tool takes into account the free concentrations of protein and ligand. (13) Ki=(IC50−[protein]/2)/([peptide]/Kd+1)
A general note: Fluorescence polarisation rises when a labelled molecule tumbles more slowly, as on binding a larger partner.

In assay [2] the target is T1, RSV N-RNA complex. The assay is described as follows: biochemical. The assay is classed as binding. The procedure: We carried out FP measurements using the fluorescent F11 peptide and N-RNA complex. […] No salt was added to promote high affinity.
We first measured binding of Fn peptides (200 nM) to N-RNA in Tris buffer by FP (Figure 5A,B). […] We fitted the data with ΔFPmax and Kd as parameters.
We therefore measured fluorescein FP in the presence of N-RNA. […] To test if fluorescein binds to the P-binding site on the N-RNA, we carried out a competition experiment with M76 (Figure 6C).
We first performed FP measurements in salt-free Tris pH 8 buffer (Figure 8A). We measured binding curves using 200 nM of fluorescent peptides.
as §1
We assumed that the measured fluorescence polarization FP is a linear combination of the FP of the fluorescent probe in the absence of N protein (FPmin) and the FP of N-bound fluorescent probe (FPmax), weighted by the molar fraction. The molar fraction x = [P]bound/[P]0 can then be expressed as a ratio of FP differences (Equation (8)). (8) x=(FP−FPmin)/(FPmax−FPmin)=∆FP/∆FPmax
To determine the Kd value of a complex between a fluorescent probe and N protein, a series of samples with constant probe concentration and varying N concentration was measured. FP binding curves were fitted with a single binding site model and a 1:1 stoichiometry.

The target of assay [3] is T2, RSV N-RNA complex (full-length N protein in ring-shaped complexes with bacterial RNA) (human respiratory syncytial virus, UniProt P03418 1-391).
T2 construct: human RSV nucleoprotein N, full length; concentrations are of N protomer; also called N-RNA rings; source: in lysate for the co-purification; purified (glutathione-Sepharose, thrombin, Superdex 200) as N-RNA complex; copies: 10-11
T2 sequence (looked up): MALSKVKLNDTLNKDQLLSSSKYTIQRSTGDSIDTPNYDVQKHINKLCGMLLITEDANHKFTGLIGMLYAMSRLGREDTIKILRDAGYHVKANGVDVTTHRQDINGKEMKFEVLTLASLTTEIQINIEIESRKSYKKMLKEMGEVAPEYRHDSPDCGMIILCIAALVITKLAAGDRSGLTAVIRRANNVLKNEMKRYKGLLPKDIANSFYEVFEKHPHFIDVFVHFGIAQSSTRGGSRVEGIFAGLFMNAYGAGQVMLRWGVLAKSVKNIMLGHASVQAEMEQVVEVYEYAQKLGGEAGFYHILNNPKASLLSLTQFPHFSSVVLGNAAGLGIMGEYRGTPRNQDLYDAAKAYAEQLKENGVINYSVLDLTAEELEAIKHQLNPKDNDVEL
The assay is described as follows: fluorescence polarisation; 200 nM dicyano BODIPY FL-labelled BCNn peptide, N-RNA varied; 20 mM Tris pH 8.0 with 100 mM NaCl, 0.01% Brij-35; 20 °C; single site model. To be noted: both partners purified.

Assay [4] addresses T2, RSV N-RNA complex (full-length N …). Kind of assay: fluorescence polarisation; 200 nM dicyano BODIPY FL-labelled BCNn peptide, N-RNA varied; 20 mM Tris pH 8.0 without salt, 0.01% Brij-35; 20 °C; single site model. To be noted: both partners purified.
For assay [5] the target is unchanged. Kind of assay: fluorescence polarisation; competition: unlabeled P_(10EE) varied against 200 nM BCN_(10EE) on 1 µM N-RNA; Tris pH 8 buffer; Hill equation; Ki from the IC50-to-Ki server. To be noted: both partners purified.
The target is the same in assay [6]. Kind of assay: fluorescence polarisation; competition: unlabeled P peptide varied against 200 nM F11 on 10 µM N-RNA; Tris pH 8 without salt; Hill equation; Ki from the IC50-to-Ki server. To be noted: both partners purified.
The target is the same in assay [7]. Kind of assay: fluorescence polarisation; competition: unlabeled P7E varied against 200 nM F7E on 10 µM N-RNA; Tris pH 8 without salt; Hill equation; Ki from the IC50-to-Ki server. To be noted: both partners purified.
The target is the same in assay [8]. Kind of assay: fluorescence polarisation; competition: unlabeled P5E varied against 200 nM F5E on 10 µM N-RNA; Tris pH 8 without salt; Hill equation; Ki from the IC50-to-Ki server. To be noted: both partners purified.
Assay [9] has the same target. Kind of assay: fluorescence polarisation; 200 nM FTU-labelled Fn peptide, N-RNA varied (up to 40 µM N); 20 mM Tris pH 8.0 without salt, 0.01% Brij-35; 20 °C; 30 min incubation; single site model, or with a linear contribution where marked (*). To be noted: both partners purified.
Where [10] appears, read: BCNn peptides 200 nM, Tris pH 8.0, no salt, single site model.

As for `Cc1cc(C)n2c1C=C1C=CC(CCC(=O)N[C@@H](CC(N)=O)C(=O)N[C@@H](CC(=O)O)C(=O)N[C@@H](CC(C)C)C(=O)N[C@@H](CCC(=O)O)C(=O)N[C@@H](CC(C)C)C(=O)N[C@@H](CCC(=O)O)C(=O)N[C@@H](CC(=O)O)C(=O)N[C@@H](Cc3ccccc3)C(=O)O)=[N+]1[B-]2(C#N)C#N` [BCN8E] (X1-NDLELEDF-OH), the “Fitted FPmax” value on RSV N-RNA complex [1] (inhibitor M76, [N-RNA] 2 µM) turned out to be 166 mFP; on RSV N-RNA complex [1] (inhibitor M76, [N-RNA] 5 µM) it was 196 mFP. On RSV N-RNA complex [2] (100 mM NaCl vs no salt, Tris pH 8), the “decrease of affinity in salty buffer versus salt-free buffer” value is on record as 5 fold. Further, the Kd at RSV N-RNA complex [2] (setting [10]) was 1400 nM. The ΔFPmax is given as 298 ± 5 mFP at RSV N-RNA complex [2] (setting [10]) and 284 ± 15 (*) mFP at RSV N-RNA complex [2] (BCNn peptides 200 nM, Tris pH 8.0, with salt (100 mM NaCl), (*) saturation not reached).

B1: BCN_(10EE) (dicyano BODIPY FL-labelled RSV P 10-mer, Ser232Glu/Ser237Glu) (peptide)
peptide: {dicyano BODIPY FL}-EDNDLELEDF
notes: C-terminal 10 residues of RSV phosphoprotein P with phosphomimetic glutamates at 232 and 237; also called B_(10EE); source: synthetic peptide (Fmoc/tBu solid phase, dicyano BODIPY FL coupled on resin, RP-HPLC purified)
Turning to B1, the Kd in [3] came out at 1.24 ± 0.31 µM; in assay [4], 160 ± 30 nM.

B2: P_(10EE) (unlabeled RSV P 10-mer, Ser232Glu/Ser237Glu) (peptide)
peptide: EDNDLELEDF
notes: unlabeled equivalent of BCN_(10EE), which was made from P_(10EE) on resin; C-terminal 10 residues of RSV phosphoprotein P; source: synthetic peptide
Take B2: in [5], the IC50 stood at 21 ± 4 µM and affinity was put at a Ki of 2900 nM.

B3: P7E (unlabeled RSV P 7-mer, Ser237Glu) (peptide)
peptide: DLELEDF
notes: unlabeled peptide from which F7E was made; C-terminal 7 residues of RSV phosphoprotein P; source: synthetic peptide (Fmoc/tBu solid phase, RP-HPLC purified)
As to B3, in [6], the concentration for half-maximal inhibition (IC50) was found to be 180 ± 11 µM and the inhibitory constant (Ki) was 75 µM. For the same molecule, in [7], the IC50 worked out at 376 ± 26 µM and the inhibition constant Ki came out at 74 µM.

B4: P5E (unlabeled RSV P 5-mer, Ser237Glu) (peptide)
peptide: ELEDF
notes: unlabeled peptide from which F5E was made; C-terminal 5 residues of RSV phosphoprotein P; source: synthetic peptide (Fmoc/tBu solid phase, RP-HPLC purified)
Consider B4, for which, in assay [8], the 50% inhibitory concentration (IC50) worked out at 433 ± 21 µM and the inhibition constant Ki came out at 158 µM.

B5: BCN8E (dicyano BODIPY FL-labelled RSV P 8-mer, Ser237Glu) (peptide)
peptide: {dicyano BODIPY FL}-NDLELEDF
notes: C-terminal 8 residues of RSV phosphoprotein P with a phosphomimetic glutamate at 237; also called B8E; source: synthetic peptide (Fmoc/tBu solid phase, dicyano BODIPY FL coupled on resin, RP-HPLC purified)
In the case of B5, the dissociation constant Kd amounted to 7.1 ± 0.1 µM in [3] and 1430 ± 80 nM in assay [4].

B6: F_(11SE) (FTU-labelled RSV P 11-mer, Ser237Glu) (peptide)
peptide: {FITC}-DSDNDLELEDF
notes: C-terminal 11 residues of RSV phosphoprotein P with a phosphomimetic glutamate at 237; source: synthetic peptide (Fmoc/tBu solid phase), FITC coupled in solution, HPLC purified
Regarding B6, in [9], the Kd is 870 ± 260 nM.
